Experimental data as given in PMC8096241.
Positions count from the first letter of the chain named.

T1: CapR (Vibrio cholerae phage satellite PLE1, UniProt M1R2X8 1-139)
T1 sequence: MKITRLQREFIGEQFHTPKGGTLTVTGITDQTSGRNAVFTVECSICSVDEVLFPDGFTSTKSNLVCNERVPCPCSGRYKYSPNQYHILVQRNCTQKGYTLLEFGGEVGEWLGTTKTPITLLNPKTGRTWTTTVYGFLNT

T2: CapR C43/46/72/74S (4xmut) (Vibrio cholerae phage satellite PLE1, UniProt M1R2X8 1-139, C43S;C46S;C72S;C74S)
T2 sequence: T1 sequence with C43S, C46S, C72S, C74S

B1: probe D (dsDNA)
DNA 1: AATAATCGTTCGCAACAACAAATATTACAATTATTAATGCAAACGACATATTTATTTAAATTA
DNA 2: TAATTTAAATAAATATGTCGTTTGCATTAATAATTGTAATATTTGTTGTTGCGAACGATTATT
B2: probe F (dsDNA)
DNA 1: AATAATCGTTCGCAACAACAAATATTACAAT
DNA 2: ATTGTAATATTTGTTGTTGCGAACGATTATT

Assays:
CapR = target: T1, CapR; experiment: EMSA
[1] = target: T2, CapR C43/46/72/74S (4xmut); experiment: EMSA

Binder | binding result (CapR) | binding result [1]
B1 | binds | no binding
B2 | binds | 
